{"source": "patent US20110124565", "test_system": "FVIII L99 (B domain deleted FVIII with R372A and Val374 replaced by a 99 amino acid Gly/Ser linker)", "data": [{"substance": "human activated Protein C", "values": [{"measurement": "remaining FVIII activity (FXa generation test) after addition of human APC with or without protein S", "value": "FVIII L99 could be inactivated by human APC with or without Protein S"}]}]}
